# Laboratory results published in US20030199671A1, “Binding molecules for Fc-region polypeptides” (priority 2001, published 2003).
# Read-outs that look alike come from different tables or passages of the source. Positions of bridges follow the written chain, without caps; N, C: chain ends. Residues, ends and D or L forms follow the SMILES beside them.
# Assays:
# IgG3 = IgG3 (Homo sapiens, UniProt P01860); format: binding; parameters: all human subtypes derived from myeloma patients; purchased Calbiochem 400124; host or cells: myeloma patients; conditions: for % IgG Capture - Batch Binding, Human IgG3: Table 9, immobilized peptide, 5.0 mg/ml resin load
# Outline: (§1)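 Percent bound = control mass minus unbound mass, with unbound IgG read at A280 after 1–1.5 h room-temperature incubation with the peptide resin in PBST pH 7.2 or TBST pH 7.5. Bound IgG was eluted 30–60 min with 0.1 M citrate pH 4.0 and/or bicarbonate pH 8.5. Recovery is given as percent of total load.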
# human plasma IgG2 = biological target: T1, human plasma IgG2 (Homo sapiens, UniProt P01859); experiment: Fluorescence anisotropy binding, Oregon Green labeled peptide
# T1 construct: the individual human plasma IgG isoforms: IgG1, IgG2, IgG3, or IgG4; purchased Calbiochem; host or cells: human plasma
# Procedure: (§2) Peptides were synthesized by BACHEM and then Oregon Green labeled and HPLC purified. Binding studies were performed using human plasma IgG isoforms: IgG1, IgG2, IgG3, and IgG4, obtained from Calbiochem.
# (§3) Binding studies were carried out at either pH 4.0, 7.5, or 9.5, with or without salt in the following buffers:
# (§4) 2) 10 mM Sodium Citrate, 500 mM Sodium Chloride, 0.01% Tween 20, pH 4.0;
# (§5) 4) […], 500 mM Sodium Chloride, 0.01% Tween 20, pH 7.5;
# (§6) 5) 10 mM Sodium Bicarbonate, 0.01% Tween 20, pH 9.5;
# (§7) 6) 10 mM Sodium Bicarbonate, 500 mM Sodium Chloride, 0.01% Tween 20, pH 9.5; or […]
# human plasma IgG4 = biological target: T2, human plasma IgG4 (Homo sapiens, UniProt P01861); experiment: as above
# T2 construct: the individual human plasma IgG isoforms: IgG1, IgG2, IgG3, or IgG4; purchased Calbiochem; host or cells: human plasma
# Procedure: as §2, §3, §4, §5, §6, §7
# human plasma IgG3 = biological target: T3, human plasma IgG3 (Homo sapiens, UniProt P01860); experiment: as above
# T3 construct: the individual human plasma IgG isoforms: IgG1, IgG2, IgG3, or IgG4; purchased Calbiochem; host or cells: human plasma
# Procedure: as §2, §3, §4, §5, §6, §7
# human IgG = format: binding
# Outline: (§8)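 Steps: dilute IgG in PBST or TBST; incubate with immobilized peptide 1-1.5 h, RT; collect unbound by centrifugation; measure A280; wash three times; elute with 0.1 M sodium bicarbonate pH 8.5 and/or 0.1 M sodium citrate pH 4.0 for 30-60 min and quantitate.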
# mouse IgG = format: binding
# Outline: as §8
# goat IgG = format: binding
# Outline: as §8
# human IgG1 = biological target: T4, human IgG1 (Homo sapiens, UniProt P01857); format: binding; conditions: for % IgG Capture - Batch Binding, Human IgG1: Table 9, immobilized peptide, 5.0 mg/ml resin load
# T4 construct: all human subtypes derived from myeloma patients; purchased Calbiochem 400120; host or cells: myeloma patients
# Outline: as §1
# human IgG2 = biological target: T5, human IgG2 (Homo sapiens, UniProt P01859); format: binding; conditions: for % IgG Capture - Batch Binding, Human IgG2: Table 9, immobilized peptide, 5.0 mg/ml resin load
# T5 construct: all human subtypes derived from myeloma patients; purchased Calbiochem 400122; host or cells: myeloma patients
# Outline: (§9)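 Read-out is A280 of unbound IgG (1.4 mg/ml extinction coefficient), with percent bound derived against non-filtered or negative controls. Targets were incubated with immobilized peptides in PBST or TBST for 1-1.5 h at room temperature. Hydrolyzed Sepharose and immobilized Protein A serve as negative and positive controls.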
# bovine IgG = format: binding
# Outline: as §8
# IgG4 = IgG4 (Homo sapiens, UniProt P01861); format: binding; parameters: all human subtypes derived from myeloma patients; purchased Calbiochem 400126; host or cells: myeloma patients; conditions: for % IgG Capture - Batch Binding, Human IgG4: Table 9, immobilized peptide, 5.0 mg/ml resin load
# Outline: as §9
# [1] = Table 10, elution 0.1 M sodium bicarbonate buffer, pH 8.5
# [2] = Table 10, elution 0.1 M sodium citrate buffer, pH 4.0
# [3] = Table 13, average ligand density 1.8 μM/ml
# [4] = Table 14, average ligand density 1.8 μM/ml
# T1 sequence (P01859 1-326 isoform P01859-1): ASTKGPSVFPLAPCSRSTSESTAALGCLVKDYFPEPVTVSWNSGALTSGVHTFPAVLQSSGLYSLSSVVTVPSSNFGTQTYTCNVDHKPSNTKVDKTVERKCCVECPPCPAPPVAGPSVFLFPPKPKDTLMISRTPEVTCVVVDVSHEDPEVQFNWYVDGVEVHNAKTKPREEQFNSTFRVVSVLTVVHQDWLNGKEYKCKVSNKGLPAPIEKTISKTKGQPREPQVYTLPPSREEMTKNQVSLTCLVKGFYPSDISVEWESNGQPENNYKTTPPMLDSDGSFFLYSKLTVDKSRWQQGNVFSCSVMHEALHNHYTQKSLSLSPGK
# T5 sequence (P01859 1-326 isoform P01859-1): as above
# T4 sequence (P01857 1-330 isoform P01857-1): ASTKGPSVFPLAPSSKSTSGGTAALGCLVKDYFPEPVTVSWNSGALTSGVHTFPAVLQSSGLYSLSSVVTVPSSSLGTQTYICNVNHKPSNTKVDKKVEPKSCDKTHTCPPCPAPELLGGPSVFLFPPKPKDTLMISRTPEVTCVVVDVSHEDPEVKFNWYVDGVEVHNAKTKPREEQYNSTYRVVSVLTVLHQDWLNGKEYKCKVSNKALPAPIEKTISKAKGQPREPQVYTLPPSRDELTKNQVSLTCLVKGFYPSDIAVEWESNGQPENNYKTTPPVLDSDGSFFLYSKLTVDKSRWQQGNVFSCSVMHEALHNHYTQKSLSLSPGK
# Sequence of IgG3 (P01860 1-377 isoform P01860-1): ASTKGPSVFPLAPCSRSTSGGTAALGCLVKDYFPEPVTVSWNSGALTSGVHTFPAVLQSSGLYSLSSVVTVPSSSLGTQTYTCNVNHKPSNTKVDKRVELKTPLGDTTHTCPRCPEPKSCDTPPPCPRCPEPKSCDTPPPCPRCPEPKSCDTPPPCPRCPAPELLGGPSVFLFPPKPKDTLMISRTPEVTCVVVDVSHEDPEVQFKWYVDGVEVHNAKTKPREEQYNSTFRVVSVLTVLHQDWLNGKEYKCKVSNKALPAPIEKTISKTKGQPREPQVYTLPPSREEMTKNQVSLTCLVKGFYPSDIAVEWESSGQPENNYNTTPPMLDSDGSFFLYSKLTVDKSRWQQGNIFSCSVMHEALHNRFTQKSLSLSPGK
# T3 sequence (P01860 1-377 isoform P01860-1): as above
# T2 sequence (P01861 1-327 isoform P01861-1): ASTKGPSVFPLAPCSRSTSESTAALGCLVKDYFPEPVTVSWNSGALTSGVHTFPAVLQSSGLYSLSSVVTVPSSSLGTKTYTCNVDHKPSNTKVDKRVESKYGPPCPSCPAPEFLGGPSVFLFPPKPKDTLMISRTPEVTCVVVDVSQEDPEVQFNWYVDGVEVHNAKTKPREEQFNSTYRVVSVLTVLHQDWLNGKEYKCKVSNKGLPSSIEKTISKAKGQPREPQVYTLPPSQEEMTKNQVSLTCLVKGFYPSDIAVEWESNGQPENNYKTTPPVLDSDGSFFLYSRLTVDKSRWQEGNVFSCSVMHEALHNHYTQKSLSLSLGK
# Sequence of IgG4 (P01861 1-327 isoform P01861-1): as above
compound,measurement,setting,value
CC(=O)N[C@@H](C)C(=O)NCC(=O)N1CCC[C@H]1C(=O)N[C@@H](Cc1c[nH]cn1)C(=O)N[C@@H](CC(N)=O)C(=O)N[C@H]1CSSC[C@@H](C(=O)N[C@@H](CCCCN)C(=O)N[C@@H](Cc2c[nH]c3ccccc23)C(=O)N[C@@H](Cc2ccccc2)C(=O)N2CCC[C@H]2C(=O)NCC(=O)N2CCC[C@H]2C(=O)N[C@@H](CCC(=O)O)C(=O)NCC(=O)NCC(=O)NCC(=O)N[C@@H](CCCCN)C(N)=O)NC(=O)[C@H](Cc2ccc(O)cc2)NC(=O)[C@H](Cc2c[nH]c3ccccc23)NC(=O)[C@H](Cc2ccc(O)cc2)NC(=O)[C@H](Cc2c[nH]cn2)NC(=O)[C@H](CC(=O)O)NC(=O)[C@H](CC(=O)O)NC1=O [DX389] (Ac-AGPHNCDDHYWYCKWFPGPEGGGK-NH2; disulfide 6-13 (inferred)),"% IgG Capture - Batch Binding, Human IgG3",IgG3,26%
same,Kd,"human plasma IgG2; 10 nM Tris-HCl, 500 mM Sodium Chloride, pH 7.5, read-out: KD (μM) IgG2 pH 7.5 + salt",> 10 µM
same,Kd,"human plasma IgG2; 10 mM Sodium Bicarbonate, 500 mM Sodium Chloride, pH 9.5, read-out: KD (μM) IgG2 pH 9.5 + salt",> 10 µM
same,Kd,"human plasma IgG2; 10 mM Sodium Bicarbonate, pH 9.5, read-out: KD (μM) IgG2 pH 9.5 − salt",> 10 µM
same,Kd,"human plasma IgG2; 10 mM Sodium Citrate, 500 mM Sodium Chloride, pH 4.0, read-out: KD (μM) IgG2 pH 4.0 + salt",> 10 µM
same,Kd,"human plasma IgG2; 10 mM Sodium Citrate, pH 4.0, read-out: KD (μM) IgG2 pH 4.0 − salt",> 10 µM
same,Kd,"human plasma IgG2; 10 mM Tris-HCl, pH 7.5, read-out: KD (μM) IgG2 pH 7.5 − salt",> 10 µM
same,Kd,"human plasma IgG2; TBS, 0.01% Tween 20, pH 7.5, read-out: KD (μM) IgG2 TBS",> 10 µM
same,Kd,"human plasma IgG4; 10 nM Tris-HCl, 500 mM Sodium Chloride, pH 7.5, read-out: KD (μM) IgG4 pH 7.5 + salt",> 10 µM
same,Kd,"human plasma IgG4; 10 mM Sodium Bicarbonate, 500 mM Sodium Chloride, pH 9.5, read-out: KD (μM) IgG4 pH 9.5 + salt",> 10 µM
same,Kd,"human plasma IgG4; 10 mM Sodium Bicarbonate, pH 9.5, read-out: KD (μM) IgG4 pH 9.5 − salt",> 10 µM
same,Kd,"human plasma IgG4; 10 mM Sodium Citrate, 500 mM Sodium Chloride, pH 4.0, read-out: KD (μM) IgG4 pH 4.0 + salt",> 10 µM
same,Kd,"human plasma IgG4; 10 mM Sodium Citrate, pH 4.0, read-out: KD (μM) IgG4 pH 4.0 − salt",> 10 µM
same,Kd,"human plasma IgG4; 10 mM Tris-HCl, pH 7.5, read-out: KD (μM) IgG4 pH 7.5 − salt",> 10 µM
same,Kd,"human plasma IgG4; TBS, 0.01% Tween 20, pH 7.5, read-out: KD (μM) IgG4 TBS",> 10 µM
same,Kd,"human plasma IgG3; 10 nM Tris-HCl, 500 mM Sodium Chloride, pH 7.5, read-out: KD (μM) IgG3 pH 7.5 + salt",> 10 µM
same,Kd,"human plasma IgG3; 10 mM Sodium Bicarbonate, 500 mM Sodium Chloride, pH 9.5, read-out: KD (μM) IgG3 pH 9.5 + salt",> 10 µM
same,Kd,"human plasma IgG3; 10 mM Sodium Bicarbonate, pH 9.5, read-out: KD (μM) IgG3 pH 9.5 − salt",> 10 µM
same,Kd,"human plasma IgG3; 10 mM Sodium Citrate, 500 mM Sodium Chloride, pH 4.0, read-out: KD (μM) IgG3 pH 4.0 + salt",~2 µM
same,Kd,"human plasma IgG3; 10 mM Sodium Citrate, pH 4.0, read-out: KD (μM) IgG3 pH 4.0 − salt",~2 µM
same,Kd,"human plasma IgG3; 10 mM Tris-HCl, pH 7.5, read-out: KD (μM) IgG3 pH 7.5 − salt",> 10 µM
same,Kd,"human plasma IgG3; TBS, 0.01% Tween 20, pH 7.5, read-out: KD (μM) IgG3 TBS",> 10 µM
same,"% IgG Capture - Batch Binding, Human IgG","human IgG; Table 11, unfractionated IgG",4%
same,"% IgG Capture - Batch Binding, Mouse IgG","mouse IgG; Table 11, unfractionated IgG",0%
same,"% IgG Capture - Batch Binding, Goat IgG","goat IgG; Table 11, unfractionated IgG",0%
same,"% IgG Capture - Batch Binding, Human IgG1",human IgG1,4%
same,"% IgG Capture - Batch Binding, Human IgG2",human IgG2,11%
same,"% IgG Capture - Batch Binding, Bovine IgG","bovine IgG; Table 11, unfractionated IgG",0%
same,"% IgG Capture - Batch Binding, Human IgG4",IgG4,3%
"Prot. A: immobilized recombinant Protein A (RepliGen Corp., product no. IPA-400), positive control [reference compound]","% IgG Capture - Batch Binding, Human IgG3",IgG3,1%
same,Human IgG3 bdg % (% of Total Load),"IgG3; Table 10, batch binding",5%
same,Human IgG3 elu pH 8.5 (% of Total Load),IgG3; [1],0%
same,Human IgG3 elu pH 4.0 (% of Total Load),IgG3; [2],0%
same,hIgG3 elution pH 2.5 (% of Total Load),IgG3; Table 13,0%
same,hIgG3 elution pH 3.0 (% of Total Load),IgG3; Table 13,0%
same,hIgG3 elution pH 3.5 (% of Total Load),IgG3; Table 13,0%
same,hIgG3 elution pH 4.5 (% of Total Load),IgG3; Table 13,0%
same,hIgG3 elution pH 5.5 (% of Total Load),IgG3; Table 13,0%
same,hIgG3 elution pH 9.0 (% of Total Load),IgG3; Table 13,0%
same,hIgG3 elution pH 9.5 (% of Total Load),IgG3; Table 13,0%
same,hIgG3 Bound (% of Total Load),IgG3; [3],0%
same,"% IgG Capture - Batch Binding, Human IgG","human IgG; Table 11, unfractionated IgG",86%
same,"% IgG Capture - Batch Binding, Human IgG",human IgG; [4],81%
same,"% IgG Capture - Batch Binding, Mouse IgG","mouse IgG; Table 11, unfractionated IgG",77%
same,"% IgG Capture - Batch Binding, Mouse IgG",mouse IgG; [4],69%
same,"% IgG Capture - Batch Binding, Goat IgG","goat IgG; Table 11, unfractionated IgG",23%
same,"% IgG Capture - Batch Binding, Goat IgG",goat IgG; [4],20%
same,"% IgG Capture - Batch Binding, Human IgG1",human IgG1,95%
same,Human IgG1 bdg % (% of Total Load),"human IgG1; Table 10, batch binding",93%
same,Human IgG1 elu pH 8.5 (% of Total Load),human IgG1; [1],2%
same,Human IgG1 elu pH 4.0 (% of Total Load),human IgG1; [2],79%
same,hIgG1 elution pH 2.5 (% of Total Load),human IgG1; Table 13,80%
same,hIgG1 elution pH 3.0 (% of Total Load),human IgG1; Table 13,80%
same,hIgG1 elution pH 3.5 (% of Total Load),human IgG1; Table 13,86%
same,hIgG1 elution pH 4.5 (% of Total Load),human IgG1; Table 13,29%
same,hIgG1 elution pH 5.5 (% of Total Load),human IgG1; Table 13,3%
same,hIgG1 elution pH 9.0 (% of Total Load),human IgG1; Table 13,3%
same,hIgG1 elution pH 9.5 (% of Total Load),human IgG1; Table 13,3%
same,hIgG1 Bound (% of Total Load),human IgG1; [3],96%
same,"% IgG Capture - Batch Binding, Human IgG2",human IgG2,92%
same,Human IgG2 bdg % (% of Total Load),"human IgG2; Table 10, batch binding",93%
same,Human IgG2 elu pH 8.5 (% of Total Load),human IgG2; [1],8%
same,Human IgG2 elu pH 4.0 (% of Total Load),human IgG2; [2],75%
same,hIgG2 elution pH 2.5 (% of Total Load),human IgG2; Table 13,75%
same,hIgG2 elution pH 3.0 (% of Total Load),human IgG2; Table 13,75%
same,hIgG2 elution pH 3.5 (% of Total Load),human IgG2; Table 13,76%
same,hIgG2 elution pH 4.5 (% of Total Load),human IgG2; Table 13,65%
same,hIgG2 elution pH 5.5 (% of Total Load),human IgG2; Table 13,22%
same,hIgG2 elution pH 9.0 (% of Total Load),human IgG2; Table 13,13%
same,hIgG2 elution pH 9.5 (% of Total Load),human IgG2; Table 13,18%
same,hIgG2 Bound (% of Total Load),human IgG2; [3],85%
same,"% IgG Capture - Batch Binding, Bovine IgG","bovine IgG; Table 11, unfractionated IgG",72%
same,"% IgG Capture - Batch Binding, Bovine IgG",bovine IgG; [4],60%
same,"% IgG Capture - Batch Binding, Human IgG4",IgG4,96%
same,Human IgG4 bdg % (% of Total Load),"IgG4; Table 10, batch binding",92%
same,Human IgG4 elu pH 8.5 (% of Total Load),IgG4; [1],2%
same,Human IgG4 elu pH 4.0 (% of Total Load),IgG4; [2],95%
same,hIgG4 elution pH 2.5 (% of Total Load),IgG4; Table 13,70%
same,hIgG4 elution pH 3.0 (% of Total Load),IgG4; Table 13,77%
same,hIgG4 elution pH 3.5 (% of Total Load),IgG4; Table 13,87%
same,hIgG4 elution pH 4.5 (% of Total Load),IgG4; Table 13,27%
same,hIgG4 elution pH 5.5 (% of Total Load),IgG4; Table 13,6%
same,hIgG4 elution pH 9.0 (% of Total Load),IgG4; Table 13,7%
same,hIgG4 elution pH 9.5 (% of Total Load),IgG4; Table 13,8%
same,hIgG4 Bound (% of Total Load),IgG4; [3],89%
